In US20210292393A1 (published 2021):
Numbering of substitutions follows the chain as printed.

B1: antibody 326 (antibody, V domains shown)
VH: QITLKESGPTLVKPTQTLTLTCTFSGFSLNTSGVGVGWIRQPPGKALEWLSLIFWNDDKRYSPSLRSRLTITKDTSKNQVVLTMTNMDPVDTATYFCAHRNSGWSLKFDSWGQGSLVTVSA
VL: DIQMTQSPSSVSASVGDRVTITCRARQGISSWLVWYQQKPGKAPKLLIFGASSLQSGVPSRFNASGTGTEFTLTISSLQPEDFATYYCQQADSFPITFGQGTRLEIK
B2: antibody 363 (antibody, V domains shown)
VH: EVQLLESGGGLVQPGGSLRLSCAASGFTFSTYAMSWVRQAPGKGLEWVSAISGSGGSTYYADSVKGRFTISRDNSKNTLYLQMNSLRAEDTAVYYCASGYSPDYWGQGTLVTVSS
VL: not shown
B3: antibody 345 (antibody, V domains shown)
VH: QVQLQESGPGLVKPSQTLSLTCTVSGGSISSGDYYWSWIRQPPGKGLEWIGYIYYSGSTYYNPSLKSRVTISVDTSKNQFSLKLSSVTAADTAVYYCARVGMVDNWNFEGNWFDPWGQGTLVTVSS
VL: QSALTQPRSVSGSPGQSVTISCTGTSSDVGGYNYVSWYQQHPGKAPKLMIYDVSKRPSGVPDRFSGSKSGNTASLTISGLQAEDEADYYCCSYAGSVVFGGGTKLTVL
B4: antibody 340 (antibody, V domains shown)
VH: QVQLVQSGAEVKKPGASVKVSCKASGYTFTSYDINWVRQATGQGLEWMGWMNPNSGNTGYAQKFQGRVTMTRNTSISTAYMELSSLRSEDTAVYYCARGRYCTGGVCWGDWYFDLWGRGTLVTVSS
VL: QSVLTQPPSVSGAPGQRVTISCTGSSSNIGAGYDVHWYQQLPGTAPKFLIYGNSNRPSGVPDRFSGSKSGTSASLAITGLQAEDEADYYCQSYDSSLSGPVFGGGTKLTVL
B5: antibody 327 (antibody, V domains shown)
VH: QVQLVESGGGVVQPGRSLRLSCAASGFNLSNYAMHWVRQASGKGLEWVSLISYDGSIKYYTDSVKGRFTVSGDNSKNTLFLQMNSLRPDDSALYYCVRGGVSGPNSFDMWGQGTTVTVSS
VL: DVVMTQSPLSLPVTLGQPASISCRSSQSLVYSDGNTYVNWFQQRPGQSPRRLIYQVSIRASGVPDRFSGSGSGTDFALKISRVEAEDVGIYYCMQGTHWPVTFGQGTKVEIK
B6: antibody 329 (antibody, V domains shown)
VH: EVQLVESGGGLVQPGGSLRLSCAASGFTFSSYWMHWVRQAPGKGLVWVSRINSDGSSTSYADSVKGRFTISRDNAKNTLYLQMNSLRAEDTAVYYCAREGIVATITLDYWGQGTLVTVSS
VL: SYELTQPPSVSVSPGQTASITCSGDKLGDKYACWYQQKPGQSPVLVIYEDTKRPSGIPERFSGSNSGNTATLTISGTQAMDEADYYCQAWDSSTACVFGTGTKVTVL
B7: antibody 344 (antibody, V domains shown)
VH: QVQLVESGGGVVQPGRSLRLSCAASGFTFSSYAMHWVRQAPGKGLEWMAVISYDGSNKYYADSVKGRFTISRDNSKNTLYLQMNSLRAEDTAVYFCAKGYSGSYYEPFDYWGQGTLVTVSS
VL: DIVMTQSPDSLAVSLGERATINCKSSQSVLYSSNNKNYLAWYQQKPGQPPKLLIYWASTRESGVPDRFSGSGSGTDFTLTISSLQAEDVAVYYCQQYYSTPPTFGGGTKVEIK
B8: antibody 331 (antibody, V domains shown)
V domain 1: QITLKESGPTLVKPTETLTLTCSFSGFSLTKTGEAAGWIRQAPGRALEWVTVIFWDDDKRYSPSLQNRISVTKDTSKNQVVLRMTNVARFDTGTYFCWAMGGPGKEYFGQGTLVAVSS
V domain 2: QSVLTQPPSVSGAPGQRVTISCTGTSSSIGPYSDVHWYQHVSGKAPRLLIFGNSNRPSGVPDRFSGSKSGTSASLVIAGLQAEDEADYYCQSYDSSLGEIYVFGTGTTVTVL
B9: antibody 339 (antibody, V domains shown)
V domain 1: B8 V domain 1 with K31R, N67S, I69L, S70T, R83T, G93A, L113Q
V domain 2: B8 V domain 2
B10: antibody 348 (antibody, V domains shown)
VH: QVQLVQSGSELKKPGASVKVSCKASGYTFTSYAMNWVRQAPGQGLEWMGWINTNTGNPTYAQGFTGRFVFSLDTSVSTAYLQISSLKAEDTAVYYCARDHELPNTSSWFGHFEYWGQGTLVTVSS
VL: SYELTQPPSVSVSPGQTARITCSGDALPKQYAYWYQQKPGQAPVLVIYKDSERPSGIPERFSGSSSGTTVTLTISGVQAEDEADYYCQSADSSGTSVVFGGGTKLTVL
B11: antibody 546 (antibody, V domains shown)
VH: QVQLVESGGGVVQPGRSLRLSCAASGFTFSSYGMHWVRQAPGKGLEWVAVIWYDGSNKYYADSVKGRFTISRDNSKNTLYLQMNSLRAEDTAVYYCARNCGGDCVAGDGFDYWGQGTLVTVSS
VL: DIQMTQSPSSLSASVGDRVTITCRASQSISSYLNWYQQKPGKAPNLLIYAASSLQSGVPSRFSGSGSGTDFTLTISSLQPEDFATYYCQQSYSALTWTFGQGTKVEIK
B12: antibody 504 (antibody, V domains shown)
VH: QVQLVESGGGVVQPGRSLRLSCAASGFTFSSYGMHWVRQAPGKGLEWVAVISYDGSNKYYADSVKGRFTISRDNSKNTLYLQMNSLRAEDTAVYYCAKGGGGGYCSGGSCYSHYFDYWGQGTLVTVSS
VL: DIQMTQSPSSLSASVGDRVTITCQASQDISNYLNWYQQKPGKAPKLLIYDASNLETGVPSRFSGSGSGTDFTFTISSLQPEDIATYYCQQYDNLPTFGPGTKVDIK
B13: antibody 543 (antibody, V domains shown)
VH: EVQLVESGGGLVQPGRSLRLSCAASGFTFHDYAMHWVRQAPGKGLEWVSGISWNSGSIGYADSVKGRFTISRDNAKNSLYLQMNSLRAEDTALYYCAKDTFGSSSWYRGDSYYYYGMDVWGQGTTVTVSS
VL: QSALTQPASVSGSPGQSITISCTGTSSDVGGYNYVSWYQQHPGKAPKLMIYEVSNRPSGVSNRFSGSKSGNTASLTISGLQAEDEADYYCSSYTSSSTQRYVVFGGGTKLTVL
B14: antibody 523 (antibody, V domains shown)
VH: EVQLVESGGVSVQPGGSLRLSCAASGFSFNTYDMHWVRQGTGKGLEWVSGIGTAGDTYYSDSVKGRCTISRDNAKNSLHLLVKSVRAADTAVYYCARGVGGIIDYWGQGTLVTVSS
VL: NFVLSQPHSVSESPGKTVTISCTGNSGSIATKYVQWFQQRPGSAPTTVIYEDNQRPSGVPDRFSGSSDSSSNSASLTISGLKTEDEAHYYCQSYHNRRWVFGGGTKLTVL
B15: antibody 537 (antibody, V domains shown)
VH: QVQLQQWGAGLLKPSETLSLTCAVYGGSFSGYYWSWIRQPPGKGLEWIGEINHSGSTNYNPSLKSRVTISVDTSKNQFSLKLSSVTAADTAVYYCARGLYYDMGGGFDYWGQGTLVTVSS
VL: not shown
B16: antibody 533 (antibody, V domains shown)
VH: GVQLVESGGVVVQPGGSLRLSCAASGFSFDDYTMHWVRQAPGKGLEWVSLVSWDGGTTYYTDSVKGRFTISRDNSKNSLYLQMNSLRTEDTALYFCAKDSGRIVPAATFDYWGQGTLVTVSS
VL: DIQMTQSSSSLSASVGDRVTITCRASQDISNYLAWFQQKPGKAPKSLIYAASSLQSGVPSKFSGSGSGTDFTLTISSLQPEDFATYYCQQYYTYPLTFGGGTKVEIK
B17: antibody 547 (antibody, V domains shown)
VH: QVHLVESGGGVVQPGRSLRLSCAASGFALSSYAMHWVRQPPGKGLEWVALISYDGSVKKYADSVKGRITVSGDNSRNTLHLQINSLRADDTAVYYCVRGGVSGPNSFDLWGHGTMVTVSS
VL: B5 VL with M4L, V30E, D33V, Q55K, I58N, A60D, A77T, K79Q, E86D
B18: antibody 509 (antibody, V domains shown)
VH: B5 VH with N31S, P88A, M109L
VL: B5 VL with Q55K, I90V
B19: antibody 517 (antibody, V domains shown)
VH: B5 VH with P88A
VL: B5 VL with I90V
B20: antibody 527 (antibody, V domains shown)
VH: QLQLQESGPGLVKPSETLSLTCTVSGGSISSSSYYWGWIRQPPGKGLEWIGSIYYSGSTYYNPSLKSRVTISVDTSKNQFSLKLSSVTAADTAMYYCASHVVVIASSYWCFDLWGRGTLVTVSS
VL: QSALTQPASVSGSPGQSITISCTGTSSDVGGYNYVSWYQQHPGKAPKLMIYDVSNRPSGVSNRFSGSKSGNTASLTISGLQAEDEADYYCSSYTSISTWVFGGGTKLTVL
B21: antibody 522 (antibody, V domains shown)
VH: EVQLVESGGGLVQPGGSLRLSCAASGFNFSSYSMNWVRQAPGKGLEWVSYISSSSSTIYYADSVKGRFTISRDNAKNSLYLQMNSLRDEDTAVYYCARGPEWDIVVVQAENWFDPWGQGTLVTVSS
VL: SYELTQPPSVSVSPGQTARITCSGDALPKQYVYWYQQKPGQAPVLVIYKDSERPSGIPERFSGSSSGTTVTLTISGVQAEDEADYYCQSADSSGTYRGVFGGGTKLTVL
B22: antibody 548 (antibody, V domains shown)
VH: B7 VH with M48V, S85N, F95Y, G99S, Y100G, Y105L, E106S, P107A, Y110I, L116M
VL: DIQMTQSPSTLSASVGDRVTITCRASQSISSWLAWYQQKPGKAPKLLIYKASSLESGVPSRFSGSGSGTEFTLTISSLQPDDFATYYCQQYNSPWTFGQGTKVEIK
B23: antibody 545 (antibody, V domains shown)
VH: B10 VH with S85V, A92G, T105S
VL: SYELTQPPSVSVSPGQTARITCSGDALPKQYAYWYQQKAGQAPVLVIYKDSERRSGIPERFSGSSSGTTVTLTISGVQAEDEADYYCQSADSSGTSVVFGGGTKLTVL
B24: antibody 536 (antibody, V domains shown)
VH: QVQLVESGGGVVQPGRSLRLSCAASGFTFSSYVMHWVRQAPGKGLEWVALISYDGSNKYYADSVKGRFTISRDNSKNTLYLQMNSLRAEDTAVYYCARGGHIRVGRYFDWLISYFDYWGQGTLVTVSS
VL: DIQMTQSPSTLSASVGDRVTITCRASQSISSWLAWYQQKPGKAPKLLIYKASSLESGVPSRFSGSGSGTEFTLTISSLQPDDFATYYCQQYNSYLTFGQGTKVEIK

Biological target: SARS-CoV-2 full length spike protein (wild type) (SARS-CoV-2, UniProt P0DTC2 14-1208)

In order of falling “median fluorescence intensity fold over isotype” value:
1. B2  1030 fold over isotype control
2. B9  874 fold over isotype control
3. B10  869 fold over isotype control
4. B8  850 fold over isotype control
5. B3  562 fold over isotype control
6. B4  547 fold over isotype control
7. B6  497 fold over isotype control
8. B5  413 fold over isotype control
9. B7  404 fold over isotype control
10. B1  193 fold over isotype control

Biological target: SARS-CoV-2 full length spike protein (wild-type), conjugated to optically encoded beads (SARS-CoV-2, UniProt P0DTC2 14-1208)

In order of rising “median fluorescence fold over isotype” value:
1. B16  23.4 fold over isotype
2. B14  30.8 fold over isotype
3. B20  148 fold over isotype
4. B21  433 fold over isotype
5. B19  434 fold over isotype
6. B18  496 fold over isotype
7. B17  606 fold over isotype
8. B22  642 fold over isotype
9. B24  643 fold over isotype
10. B12  709 fold over isotype
11. B15  787 fold over isotype
12. B13  802 fold over isotype
13. B23  939 fold over isotype
14. B11  1160 fold over isotype
